According to US20160376321A1 (BAYLOR COLLEGE OF MEDICINE, published 2016):

Target: soluble ACE2 (sACE2), containing 6xHis tag (R&D Systems) (human, UniProt Q9BYF1 18-740)
Test: Ni-NTA pull-down with His-tagged sACE2, Western blot (FIG. 7B-C)

B1: recombinant protein containing RBD of Middle East respiratory syndrome coronavirus (MERS-CoV) (other)
chain: QAEGVECDFSPLLSGTPPQVYNFKRLVFTNCNYNLTKLLSLFSVNDFTCSQISPAAIASNCYSSLILDYFSYPLSMKSDLSVSSAGPISQFNYKQSFSNPTCLILATVPHNLTTITKPLKYSYINKCSRFLSDDRTEVPQLVNANQYSPCVSIVPSTVWEDGDYYRKQLSPLEGGGWLVASGSTVAMTEQLQMGFGITVQYGTDTNSVCPKL
  binding result: no binding (tested: 20 µg)
